Literature values as cited in patent US9817004B2, “Development and use of cysteine-labeled fluorescent probes of unbound analytes” (priority 2008, dated 2017).

B1: Thr81Cys: I-FABP mutant Thr81Cys labeled with acrylodan (Kleinfeld '714) (protein, UniProt P02693 2-132, looked up, variant T81C)
Fatty acid-binding protein, …: AFDGTWKVDRNENYEKFMEKMGINVVKRKLGAHDNLKLTITQEGNKFTVKESSNFRNIDVVFELGVDFAYSLADGTELTGCWTMEGNKLVGKFKRVDNGKELIAVREISGNELIQTYTYEGVEAKRIFKKE
modifications: acrylodan label
B2: Thr83Cys: I-FABP mutant Thr83Cys labeled with acrylodan (Kleinfeld '714) (protein, UniProt P02693 2-132, looked up, variant T83C)
Fatty acid-binding protein, …: AFDGTWKVDRNENYEKFMEKMGINVVKRKLGAHDNLKLTITQEGNKFTVKESSNFRNIDVVFELGVDFAYSLADGTELTGTWCMEGNKLVGKFKRVDNGKELIAVREISGNELIQTYTYEGVEAKRIFKKE
modifications: acrylodan label

Settings: I-FABP mutants labeled with acrylodan; from U.S. Pat. No. 5,470,714; cited from earlier work

Molecule	fluorescence response to FFAu binding
B1	unresponsive to FFAu binding
B2	unresponsive to FFAu binding
